Laboratory results reported in patent US20250237662A1.

Experiments:
[1] = molecular target: humanized development candidate monoclonal antibody IgG4 (hIgG4); test: Gyrolab, mAb as capture, hIgG4 40 ng/ml, against the blank
[2] = molecular target: drug: a monoclonal antibody of human IgG4 isotype (PandA assay); test: PandA assay, mAb 0.5 ug/ml in monkey plasma
[3] = molecular target: humanized development candidate monoclonal antibody IgG4 (hIgG4); test: Gyrolab, mAb as capture, hIgG4 0.32 ng/ml, against the blank
[4] = molecular target: humanized development candidate monoclonal antibody IgG4 (hIgG4); test: Gyrolab, mAb as capture, hIgG4 1.6 ng/ml, against the blank
[5] = molecular target: humanized therapeutic monoclonal antibody IgG1 (hIgG1); test: direct ELISA, hIgG1 coated, B-cell culture medium
[6] = molecular target: humanized therapeutic monoclonal antibody IgG1 (hIgG1); test: ELISA, medium of transfected HEK293F; signal on hIgG1 over signal on cynoIgG
[7] = molecular target: cynomolgus monkey IgG (cynoIgG); test: direct ELISA, cynoIgG coated (hIgG1/CynoIgG screen), B-cell culture medium
[8] = molecular target: humanized development candidate monoclonal antibody IgG4 (hIgG4); test: Gyrolab, mAb as capture, hIgG4 5000 ng/ml
[9] = molecular target: humanized development candidate monoclonal antibody IgG4 (hIgG4); test: direct ELISA, hIgG4 coated, B-cell culture medium
[10] = molecular target: humanized development candidate monoclonal antibody IgG4 (hIgG4); test: Gyrolab, mAb as capture, hIgG4 200 ng/ml, against the blank
[11] = molecular target: humanized development candidate monoclonal antibody IgG4 (hIgG4); test: Gyrolab, mAb as capture, hIgG4 0.32 ng/ml
[12] = molecular target: drug: a monoclonal antibody of human IgG4 isotype (PandA assay); test: PandA assay, mAb 0.75 ug/ml in monkey plasma
[13] = molecular target: humanized development candidate monoclonal antibody IgG4 (hIgG4); test: Gyrolab, mAb as capture, hIgG4 8 ng/ml, against the blank
[14] = molecular target: humanized development candidate monoclonal antibody IgG4 (hIgG4); test: Gyrolab, mAb as capture, hIgG4 8 ng/ml
[15] = molecular target: cynomolgus monkey IgG (cynoIgG); test: direct ELISA, cynoIgG coated (hIgG4/CynoIgG screen), B-cell culture medium
[16] = molecular target: drug: a monoclonal antibody of human IgG4 isotype (PandA assay); test: PandA assay, monkey matrix, mAb 0.5 ug/ml
[17] = molecular target: drug: a monoclonal antibody of human IgG4 isotype (PandA assay); test: PandA assay, signal to noise against the negative control
[18] = molecular target: drug: a monoclonal antibody of human IgG4 isotype (PandA assay); test: PandA assay (PEG precipitation, acid dissociation, MSD plate, sulfo-TAG-drug), mAb 5 ug/ml in monkey plasma
[19] = molecular target: drug: a monoclonal antibody of human IgG4 isotype (PandA assay); test: PandA assay, mAb 1 ug/ml in monkey plasma
[20] = molecular target: humanized development candidate monoclonal antibody IgG4 (hIgG4); test: Gyrolab, mAb as capture, hIgG4 1000 ng/ml, against the blank
[21] = molecular target: drug: a monoclonal antibody of human IgG4 isotype (PandA assay); test: PandA assay, monkey matrix, mAb 0.75 ug/ml
[22] = molecular target: drug: a monoclonal antibody of human IgG4 isotype (PandA assay); test: PandA assay, monkey matrix, mAb 5 ug/ml
[23] = molecular target: humanized development candidate monoclonal antibody IgG4 (hIgG4); test: Gyrolab, mAb as capture, hIgG4 40 ng/ml
[24] = molecular target: humanized development candidate monoclonal antibody IgG4 (hIgG4); test: ELISA, medium of transfected HEK293F; signal on hIgG4 over signal on cynoIgG
[25] = molecular target: humanized development candidate monoclonal antibody IgG4 (hIgG4); test: Gyrolab, mAb as capture, hIgG4 1.6 ng/ml
[26] = molecular target: humanized development candidate monoclonal antibody IgG4 (hIgG4); test: Gyrolab, mAb as capture, hIgG4 1000 ng/ml
[27] = molecular target: drug: a monoclonal antibody of human IgG4 isotype (PandA assay); test: PandA assay, monkey matrix, mAb 1 ug/ml
[28] = molecular target: humanized therapeutic monoclonal antibody IgG1 (hIgG1); test: SPR (Biacore T200), mAb captured by anti-rabbit mAb on CM5, antigen 80-0 nM, 1:1 fit
[29] = molecular target: humanized development candidate monoclonal antibody IgG4 (hIgG4); test: as above
[30] = molecular target: internal research reagent human Fab (hFab); test: as above
[31] = molecular target: humanized development candidate monoclonal antibody IgG4 (hIgG4); test: Gyrolab, mAb as capture, hIgG4 200 ng/ml
[32] = molecular target: humanized development candidate monoclonal antibody IgG4 (hIgG4); test: Gyrolab, mAb as capture, hIgG4 5000 ng/ml, against the blank

- S/B [1]: 11.1
- ECL Signal [2]: 188
- S/B [3]: 1
- S/B [4]: 1.4
- OD450 [5]: 1.24 OD450
- ELISA signal ratio hIgG1/CynoIgG [6]: 7.72
- OD450 [7]: 0.107 OD450
- Av. Resp. [8]: 317
- OD450 [9]: 1.29 OD450
- S/B [10]: 41.7
- Av. Resp. [11]: 2.1
- ECL Signal [12]: 323
- S/B [13]: 3.2
- Av. Resp. [14]: 6.6
- OD450 [15]: 0.124 OD450
- S/N (monkey) [16]: 1.93
- S/N [17]: 1.98
- ECL Signal [18]: 2180
- ECL Signal [19]: 426
- S/B [20]: 110
- S/N (monkey) [21]: 2.51
- S/N (monkey) [22]: 15.7
- Av. Resp. [23]: 23.4
- ELISA signal ratio hIgG4/CynoIgG [24]: 7.91
- Av. Resp. [25]: 3
- Av. Resp. [26]: 232
- S/N (monkey) [27]: 3.39
- Kd [28]: 0.277 nM
- koff [28]: 3.8e-05 s⁻¹
- kon [28]: 137000 M⁻¹ s⁻¹
- Kd [29]: 0.1 nM
- koff [29]: 1.36e-05 s⁻¹
- kon [29]: 135000 M⁻¹ s⁻¹
- Kd [30]: 0.55 nM
- koff [30]: 0.00146 s⁻¹
- kon [30]: 2.65e+06 M⁻¹ s⁻¹
- Av. Resp. [31]: 87.7
- S/B [32]: 151
B1: rabbit anti-human IgG monoclonal antibody clone 2C5 (antibody, V domains shown)
VH: QEQLVESGGDLVKPGASLTLTCTASGFSFSSGYYMCWVRQAPGKGLEWIACIYGGALTNTYYATWAKGRFTISKTSSTTVTLQMTSLTAADTATYFCARDLGAAGDAYNLWGPGTLVTVSS
VL: ASDMTQTPASVSAAVGGTVTIKCQASESIYSGLAWYQQKPGQPPKLLIFDASDLASGVPSRFKGSRSETEYTLTISDLECADAATYYCQCTDRNSITSYAFGGGTEVVVKG
